Measured values published in patent US20250206839A1, “METHODS, COMPOSITIONS AND USES FOR SEMA7A MONOCLONAL ANTIBODIES” (THE REGENTS OF THE UNIVERSITY OF COLORADO, A BODY CORPORATE, priority 2022, published 2025).

Target: T1, purified SEMA7A (Homo sapiens, UniProt O75326)
T1 construct: Fc; made in house; host or cells: cells stably transfected with SEMA7A-Fc plasmid (human breast cancer cells); purified from medium
T1 sequence (O75326 45-648 limits assumed): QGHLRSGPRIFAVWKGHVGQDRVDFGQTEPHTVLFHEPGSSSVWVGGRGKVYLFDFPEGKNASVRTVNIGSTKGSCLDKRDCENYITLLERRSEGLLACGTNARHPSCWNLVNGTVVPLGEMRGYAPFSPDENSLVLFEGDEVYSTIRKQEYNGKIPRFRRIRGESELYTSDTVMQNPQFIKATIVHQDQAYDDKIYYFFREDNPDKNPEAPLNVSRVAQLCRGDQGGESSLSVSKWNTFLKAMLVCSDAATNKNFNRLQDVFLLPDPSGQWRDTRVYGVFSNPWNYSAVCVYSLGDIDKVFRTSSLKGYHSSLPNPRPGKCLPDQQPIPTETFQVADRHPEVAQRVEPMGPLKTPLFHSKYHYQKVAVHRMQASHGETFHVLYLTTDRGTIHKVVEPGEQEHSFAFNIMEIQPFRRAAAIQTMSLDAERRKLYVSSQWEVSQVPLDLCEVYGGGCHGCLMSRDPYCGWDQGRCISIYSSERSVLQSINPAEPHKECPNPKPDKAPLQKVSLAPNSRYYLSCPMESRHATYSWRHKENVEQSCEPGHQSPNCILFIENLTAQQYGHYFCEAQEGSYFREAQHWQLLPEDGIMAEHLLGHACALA
Test: ELISA binding to purified SEMA7A
Protocol: The MultiSorp ELISA 96 well ELISA plate (Thermo Scientific) was coated with 100 μl per well of 50 μg/ml of purified SEMA7A in Coating Buffer A (Thermo Scientific CB07100) and allowed to attach overnight with gentle rocking at 4 degrees. For the peptide competition, half of the antibody was incubated in an Eppendorf tube overnight at a ratio of 1:10 with the SEMA7A peptide on a rotator at 4 degrees. The plate was washed with 200 μl per well of 1× wash buffer (Thermo Scientific WB01) and blocked with 200 μl 1× assay buffer (Thermo Scientific DS98200) for 2 hours and room temp with gentle rocking. 1× assay buffer was removed and a 200 μl serial dilution of SMEA7A mAb in 1× assay buffer was made from columns 1 through 9, with column 10-12 getting 1× assay buffer only. The plate was incubated overnight with gentle rocking at 4 degrees. The plate was washed twice with 200 μl of 1× wash buffer. 100 μl of 200 ng/ml Goat Anti-Mouse IgG HRP (Abcam 97040) in 1× assay buffer was added to columns 1-11, with column 12 getting 1× assay buffer only. The plate was incubated for 2 hours with gentle rocking at room temp. The plate was washed four times with 200 μl 1× wash buffer. 150 μl SuperSignal Femto for ELISA (Thermo Scientific) was mixed 1:1 added to each well and mixed for 1 min and then left to rock at room temperature for 30 minutes. The absorbance was read at 425 nm on a microplate reader.

binding to purified SEMA7A in presence of immunizing peptide (10× immunizing peptide): blocked this ability
B1: recombinant anti-SEMA7A monoclonal antibody: recombinant anti-SEMA7A monoclonal antibody; illustrative recombinant heavy chain SEQ ID NO: 28, light chain SEQ ID NO: 29 (antibody)
heavy: EVQLQQSGTVLARPGASVKMSCKASGYSFTSYWMHWVKQRPGQGLEWIGAIYPGNSDTSYNQKFKGKAKLTAVTSASTAYMELSSLTNEDSAVYYCTRGGAPTMITAYYAMDYWGQGTSVTVSSAKTTPPSVYPLAPGSAAQTNSMVTLGCLVKGYFPEPVTVTWNSGSLSSGVHTFPAVLQSDLYTLSSSVTVPSSTWPSETVTCNVAHPASSTKVDKKIVPRDCGCKPCICTVPEVSSVFIFPPKPKDVLTITLTPKVTCVVVDISKDDPEVQFSWFVDDVEVHTAQTQPREEQFNSTFRSVSELPIMHQDWLNGKEFKCRVNSAAFPAPIEKTISKTKGRPKAPQVYTIPPPKEQMAKDKVSLTCMITDFFPEDITVEWQWNGQPAENYKNTQPIMDTDGSYFVYSKLNVQKSNWEAGNTFTCSVLHEGLHNHHTEKSLSHSPGK
light: DIQMTQTTSSLSASLGDRVTISCRASQDISNYLNWYQQKPDGTVKLLIYYTSRLHSGVPSRFSGSGSGTDYSLTISNLEQEDIATYFCQQGNTLPWTFGGGTKLEIKRADAAPTVSIFPPSSEQLTSGGASVVCFLNNFYPKDINVKWKIDGSERQNGVLNSWTDQDSKDSTYSMSSTLTLTKDEYERHNSYTCEATHKTSTSPIVKSFNRNEC
binding to purified SEMA7A (serial dilution): bound to purified SEMA7A in a dose dependent manner
